B1: PKU71375.1: Type-III PKS enzyme from Dendrobium catenatum (protein, listed as Dendrobium catenatum)
chain: MAQRADGSASILAIGKATPENFLEQSTYPDYFFRVTNSQHLIDLKKKFQRICDKTSIRKRHFILNEELITKNPCLSKFMENSINTRLEIYAKEIQKLAVEAATKAIQEWGQPKSCITHLIFSTLSDPGLPCGDYHLLQTLGLSPNIERVVILQHGCFAGGTMLRLAKCLAESHKGARVLVVSAETTTMLFRGPSEEHQEDLITQALFADGASALIVGVNPNETIGERASFVITSASQVILPNSSHAITGHLSEGGIKATIHKDVPNLLSNNIGKILEEAFTPLGISNWNSIFWVVHPGGRAILDQLEERVGLKPEKLMISRHVLAEYGNLMGVCVHFVLDEMRKRSIDEGNTTTGEGLEWGVLLGFGLGVTIETIVLQSVSL
modifications: (1)..(382) PKU71375.1
B2: B1Q2B6: Cannabis sativa olivetol synthase (OLS), 3,5,7-trioxododecanoyl-CoA synthase (protein, listed as Cannabis sativa)
chain: MNHLRAEGPASVLAIGTANPENILLQDEFPDYYFRVTKSEHMTQLKEKFRKICDKSMIRKRNCFLNEEHLKQNPRLVEHEMQTLDARQDMLVVEVPKLGKDACAKAIKEWGQPKSKITHLIFTSASTTDMPGADYHCAKLLGLSPSVKRVMMYQLGCYGGGTVLRIAKDIAENNKGARVLAVCCDIMACLFRGPSESDLELLVGQAIFGDGAAAVIVGAEPDESVGERPIFELVSTGQTILPNSEGTIGGHIREAGLIFDLHKDVPMLISNNIEKCLIEAFTPIGISDWNSIFWITHPGGKAILDKVEEKLHLKSDKFVDSRHVLSEHGNMSSSTVLFVMDELRKRSLEEGKSTTGDGFEWGVLFGFGPGLTVERVVVRSVPIKY
modifications: (1)..(385) B1Q2B6 OLIS_CANSA 3,5,7-trioxododecanoyl-CoA synthase
B3: AAZ32093.1: Type-III PKS enzyme from Oncidium Gower Ramsey (protein)
chain: MPSLESIKNAPKTDGFASILAIGSANPENIIEQSTYPDFFFHLTNSEHLVDLKNKFQRICDKTAIRKRHFAWNEELLTANPCLRTFMDNSLNVRQEFVIREIPKLGAQAATKAIQEWGQSKSRITHLIFSTTSGMDLPGADYQLTQILGLNPNIERVMLYHQGCFAGGTTLRLTKSLAESRKGARVLVVCAETTSALTFRAPSEEHQDDLVVQALFGDGASALIVGADPDEAADERASFIIVSTSQVLLSDSAGAIGGHLSEGGLIVTLHRDVPQIVSKNVGNCLKEAFTPLGISDWNSIFWVPHPGGPAILDQIEERVGLNPEKLIISRHMLAEYGNMLGVSVHFALDEMRKRSAKEGKATTGEGLDWGVLLGIGPGITVETVVLHSVRI
modifications: Oncidium hybrid cultivar; (1)..(391) AAZ32093.1
notes: Type-III PKS enzyme from Oncidium Gower Ramsey
B4: A0A0D9WZ61: Type-III PKS enzyme from Leersia perrieri (protein, listed as Leersia perrieri)
chain: MAPVPANGAATATATTQEIRRAQRADGPATVLAIGTANPETYVSQDEYADYYFRITKSEHLPELKDKLRRICNKSGIDKRFMYVNEDVMEAHPEFADRNQSSLNARVEIASKAVPELAAAASAKAIAEWGRPATDITHLIFSTYSGVKAPSGDRLLASLLGLRPNVSRTTLSLHGCYGGGRALQLAKELAENNRGARVLVACAEMTLIAFYGPEVGCNDTIVGQALFGDGSGAVIVGADPVDAAGERPLFEMAFASQTTVPDSEGAITMQHTKGGMDYHIGSGIPEMLAGNIERCLADAFDSIGVAADWKDLFWAVHPGGRRILDLIEEALGLDNGAMASRQVLREFGNMSGTTVIFVLNELRRRFKANGAEGADWGALMAFGPGVTIETMLLRVAAGLKGN
modifications: (1)..(402) ProtKB - A0A0D9WZ61
B5: PKA56805.1: Type-III PKS enzyme from Apostasia shenzhenica (protein, listed as Apostasia shenzhenica)
chain: MPGVEAVAQNISPARSDGLAAILAIGRANPPNIVEQSSFADLYFRLHNSEHLVDLKKKLQRICDRTAIRKRHFVWDEELLMANPCLRTVTEPSLNARQKVAITEIPKLGAAAATNAIAEWGRPKSDITHLIFCTTSGMDLPGADYQLIRLLGLNDNIQRIMLYQQGCFAGGTVLRLAKVLAESRRSARVLIVCAETTTVLVRSPSVENQDDLVTQALFADGASALIVGADPNAGEKPVFSVFSTSQVLLPDSDGAIGGHVGENGLTATLHRDVPAVISKNVGKCLEEAFTPLGISDWNSIFWAAHPGGRAILDQVEERVGLKPEKMWASRHVLAEYGNMSSVSVHFALDEIRRRSAKEGKATTGDGFEWGVLFGFGPGLTVETVVLRSAPISA
modifications: (1)..(393) PKA56805.1
B6: AFU07710.1: Type-III PKS enzyme from Paphiopedilum × areeanum (protein)
chain: MPGLENRKKVEVPKRAKDLATIMAIGRANPPNAVEQSTFPDFYFRVTNNEHLVGLMKKFQCICEKTVIRRRHFVWDEEILNANPCLRTHMEPSFNVRQKIAVAEIPKMGAEAASRAIKEWGQPKSRITYLIFYTMSGMDLPVTDYKLTRILNLNLNVYQVMLYQWDCIAGGTILCWAKCSAESQKGTRVLVVSSETTTVLVRAPSEDYHDDLVTQDLFGDGASALIVGADPDEEAKERPIFTIVSTSQVVLPDSDGVIGGHLSEGGLMATLHRDVALIISKNVSKCLEEAFVTLGISDWNSIFWAPHPCRRAILDQVEERVGLKPEKLWASRHVLAEFGNMTSVCVHFVLDEIHNRSTQGKTTTGEGFDWGVLFGFGPGLIVETVILRSVPLN
modifications: Paphiopedilum x areeanum; (1)..(393) AFU07710.1
B7: AFU07709.1: Type-III PKS enzyme from Paphiopedilum armeniacum (protein, listed as Paphiopedilum armeniacum)
chain: MPGLENRKKVEAPKREEGLATIMAIGRANPPNAMEQSTFPDFYFRVTNSEHMVGLKKKFQRICEKTAIRRRHFVWNEEILNANPCMCTHMEPSLNVGQKIVVAEIPKLGAEAASRAIEVWGQPKSRITHLIFCTTSSMDLLGADYKITRILGLNLNVQRGMLYQQGCFAGGTVLRLAKCFTESQKGTRVLVVCSENAIILVRASSEDYQDDLVTQALFADGASALIVGEDPDEEAKERPIFTIISTTHVILPDSDGAIGGHLGEGGLMATLQRDVPFIISKNVNTCLEESFAPLVISDWNSVFWAPHSGGRAILDQVEERAGLKPEKLWASRHVLAKYGNMSSVCVHFVLDEIRKRSTKEGKTTTGEGFDWGVLFGFGLGLTVETVILRSVPLN
modifications: (1)..(394) AFU07709.1
B8: A0A0D9W1R8: Type-III PKS enzyme from Leersia perrieri (protein, listed as Leersia perrieri)
chain: MGSQGEYYNKEGRGQAAILGIGSAVPPYELPQSSFPDYYFDVSNSNHRQDLKAKFAKICERTMIEKRCVYMSEEFLRSNPSVTAYSSPSIDVRQRLTDATVPELGAAAARVAIADWGRPASEISHLVMCSTVSGCMPGADYEVVKLLGLPLSTKRCMMYHIGCHGGGTVLRIAKDIAENNPGARVLVVCSEVISMALRGPSDSNMGNLVGQALFGDAGAAVVVGTDPVESCGERALFEMVAAMQDIIPDTEEMVAKLREDGLLYSLHRDVPVHIEANIEAIVNKSGVGAKAADWNEDVFWLVHPGGRDILDRVARRLGLRHDKVEVSREVMRKHGNTLSSCVVIAMEEMRRRSAERGMGTAGEGLEWGLLFGFGPGLTVETILLRAPLTHPPPCAHAAVRPQ
modifications: (1)..(402) ProtKB - A0A0D9W1R8
B9: XP_020572025.1: Type-III PKS enzyme from Phalaenopsis equestris (protein, listed as Phalaenopsis equestris)
chain: MPSFPSVKKAPTAEGFASILAIGRANPENFIEQSAYPDFFFRVTNSEHLVDLKKKFQRICDKTAIRKRHFVWNEEFLTANPCFSTFMDKSLNVRQEVAIREIPKLGAKAATKAIEDWGQPKSRITHLIFCTTSGMDLPGADYQLTQILGLNPNVERVMLYQQGCFAGGTTLRLAKCLAESRKGARVLVVCAETTTVLFRAPSEEHQDDLVTQALFADGASAVIAVIVGADPDEAADERASFVIVSASQVLLPDSAGAIGGHVSEGGLLATLHRDVPQIVSKNVGKCLEEAFTPFGISDWNSIFWVPHPGGRAILDQVEERVGLKPEKLSVSRHVLAEYGNMSSVCVHFALDEMRKRSAKEGKATTGEGLEWGVLFGFGPGLTVETVVLQSVPI
modifications: (1)..(393) XP_020572025.1

System: E. coli derivative strain which overexpressed an acyl-CoA synthetase (fadD) gene and expressed an olivetolic acid cyclase (OAC) from Cannabis sativa
Assay: OL, OLA and PDAL production in E. coli from plasmid-expressed Type-III PKS genes
Format: cell-based
Conditions: gene on plasmid; for Total: OL + OLA + PDAL; for OL / OLA / PDAL: constitutive promoter, culture spiked with 4 mM hexanoic acid
Procedure: To test olivetolic acid production in E. coli, strains comprising a putative OLS gene and an OAC gene from C. sativa were inoculated in multi-well plates containing LB supplemented with 1% glucose and appropriate concentrations of antibiotics. After 6 hours of cultivation at 32° C., the cells were transferred with a 10% inoculum to a P-limited seed medium (see Table 2) and cultivated for ˜18 hours at 32° ° C. to reach an OD of 2.0-4.0. The cultures were transferred with a 20% inoculum in a P-minimal medium (see Table 3) supplemented with 2% glucose and appropriate concentrations of antibiotics. After 3 hours of cultivation at 32° C., the culture was spiked with 4 mM hexanoic acid (˜OD 1.5-2.0). The resulting cultures were then harvested at either 3 hours or 21 hours post hexanoic acid spike; a final OD was taken. 300 μL of butyl acetate containing 500 mg/L undecanoic acid was added to each multi-well plate. The plates were then vortexed for 30 minutes at 1500 rpm and centrifuged for 10 minutes at 4500 rpm. 50 μL of organic layer was transferred to a 96-well plate and derivatized with 50 μL of N,O-Bis(trimethylsilyl)trifluoroacetamide (BSTFA). The plate was then incubated at room temperature for 2 hours to allow for complete derivatization. The samples were then run on GC-FID for analytical quantification of olivetolic acid (OLA), olivetol (OL), PDAL, and hexanoic acid.
Olivetol, PDAL, OLA, HTAL, CBGA and combinations thereof were analyzed by LCMS or LCMS/MS methods using C18 reversed phase chromatography coupled to either EXACTIVE™ (ThermoFisher) or QTRAP® 4500 (Sciex) mass spectrometers.
For reversed phase LCMS, compounds were identified by their LC retention times and MRM transitions specific to the compounds. LCMS/MS analysis was conducted on a Shimadzu UHPLC system coupled with AB Sciex QTRAP 4500 mass spectrometer. Agilent Eclipse XDB C18 column (4.6×3.0 mm, 1.8 μm) was used with a 1-min gradient elution at 1 mL/min using water containing 0.1% ammonia acetate as mobile phase A and 90% methanol containing 0.1% ammonia acetate as mobile phase B. The LC column temperature was maintained at 45° C. Negative ionization mode was used for all the analytes.
The genes for 20 Type-III PKS enzymes were codon optimized for E. coli and cloned under control of a constitutive promoter into an expression vector (p15a replicon, carbenicillin resistance marker). The 20 plasmids were transformed into an E. coli derivative strain which overexpressed an acyl-CoA synthetase (fadD) gene and expressed an olivetolic acid cyclase (OAC) from Cannabis sativa.
The in vivo assay procedure and analytical methods were performed as described above.

| Molecule | Total | OL | OLA | PDAL |
| --- | --- | --- | --- | --- |
| B1 | 0 µM | 0 µM | 0 µM | 0 µM |
| B2 | 1072 µM | 324 µM | 279 µM | 470 µM |
| B3 | 16 µM | 16 µM | 0 µM | 0 µM |
| B4 | 34 µM | 34 µM | 0 µM | 0 µM |
| B5 | 37 µM | 27 µM | 10 µM | 0 µM |
| B6 | 0 µM | 0 µM | 0 µM | 0 µM |
| B7 | 0 µM | 0 µM | 0 µM | 0 µM |
| B8 | 0 µM | 0 µM | 0 µM | 0 µM |
| B9 | 0 µM | 0 µM | 0 µM | 0 µM |

Source: patent US20240240160A1, “NOVEL OLIVETOL SYNTHASES FOR C[…]” (priority 2021, published 2024)
